Assay results reported in the DeepSol protein solubility set.

Assay: soluble on expression in E. coli; label from the status in PepcDB or PDB records

Question: With “MIHSLFFHNNTKGTPSMKHPIDSISAEIEDEQAYVDKLFGKLDEEVVAANQRLNDVMLHVDPANPDAEALVRRETEYHALNEKIDRLNIAQLGLVFGRIDVTAQRTDLIDNWVAGTDNVDRRYIGRMGLDDRQNDYRTLLLDWRAPLARPFYLATTAHPEGVLHRRHIRTQGRSVVGVDDEVLSGVSAESAHSERADVVSETALYRAMCSARTGHMHSIVETIQREQDDIIRDPTRGVMVVEGGPGTGKTAVALHRVAYLLYTWRDQLAKTGVLIVGPNRSFLDYISRVLPELGETGVVLSTVGDLYPGISGTAVEDSLAREIKGSEEMVTVLRRLVQEYQQIPSEPFTIKIDGLELTVTPDIVKKARTRARRSRRPHNEARPLFTEHLTELLSHQMADLIGADPMGGKNLLSAADIAQLHDELLEESVVAEIVDEYWPQLTPQDTLTSLLESQNMISTVAYDYDEETQEALWRQQGSPWAASDAALLDELAVIIGVPDPEKERAEQEKAWREQIKDAQDALEILTGSANTDLDDESDAEILSAHDVIDAETLARRQEVRDIRSTAQRAREDLAWAYGHVIVDEAQELTPMEWRMVMRRCPSRWMTLVGDTAQTSSPAGVDSWAEALEPFVSGRYVTHHLTINYRTPAEIMEWANKVLHVFAPDAVGSTALRQSGTPVRFENSDAHAIEIAQKLRQDDPSRLTAIIGPDSMANNEIFGVSDIKGLEYDHVVVTNPIDIVNGSPQGWQDLYVALTRATQSLCIIGDLPELS” as the sequence, how does the “soluble on expression in E. coli” value read?
Answer: The value was “not soluble”.

Question: With “MGSDKIHHHHHHMPPRKKAAIASTGIAGLDEILRGGLPLPNLFMLQGAPGSGKTTAAIQFLRAGVEAGESCLYVTLSQSAAELRSIAVSHGWTLDGIHVEELSTTGSIDEADEQSIFMTADLRLDETRKAIEAAIDEHKPQRLVYDSLLEIRLITGDSPRFRRELIGFKSFLSKRKVVALLLDTQSPGLDRSGEEVEGLAHGVIRFDKSLEEYGGVRRRIEVSKMRGVPIADGYHDMAIREGAGVVVFPRIMPSTATEATKPQLIKSGVSELDDMFGGGQEAGTTTLVIGQAGTGKSTMSSLYATAALERGESVALFLFEERLETFFRRSEGLGMQLRQFHKDGKLILRDFNPNEVSPGEFGQIVQDAVVQNKVRVVVIDSLTGYLNSLPHREKAVRDIQSLLKYLARSGVLTMLIVAQHGLLGQNVGIDVDVSFLGDTVLLLRIMEHEGRLRRSITVVKKRHGPHDLDVRELLIESGSVSVVSYNPLPDPK” as the sequence, how does the “soluble on expression in E. coli” value read?
Answer: Its value is “not soluble”.

Question: Which “soluble on expression in E. coli” value does the source give for ELYSALANKCCHVGCTKRSLARFC here?
Answer: The value was “soluble”.

Question: With “MRTAEFWIGRLGLERHPEGGWYRETYRSEGSYGFNGNSPFGSPRSYATSIFYLLEHGDRSRLHRIRSDEQWYFHAGSPLDVHCFPETGDPSLFTLGDDPNAGQVLHSWVSAGHWFGASLSEQADAPGTYALVSCVVAPGFDFRDLTFADPAALTAQFPAHAQIIEKLSLEHHHHHH” as the sequence, how does the “soluble on expression in E. coli” value read?
Answer: The value was “soluble”.

Question: Which “soluble on expression in E. coli” value does the source give for “MGHHHHHHSHMPYLVIEHLEDISEWLLLEYKHVAQWWGDKLIFTNVKPKERKILAEIGSVVTESITKLPVDRSKVIVLDLQAKEELKPEDISEDTIIVVGGILGDAIPRGRTRKLITSKMEGVKVRHIGRPQFSIDGASIIAKLISEGKRLEEIEYEENPTIKLDEFSEITFHYAVPKLNGKLLLTPGLIELQKKELGYLEEDEDDGLIEFFEGKGEL” here?
Answer: The value was “soluble”.

Question: Which “soluble on expression in E. coli” value does the source give for “GSHMSSLEKRLGKNEYFIITKSSPVRAILNDFAANYSIPVFISSSVNDDFSGEIKNEKPVKVLEKLSKLYHLTWYYDENILYIYKTNEISRSIITPTYLDIDSLLKYLSDTISVNKNSCNVRKITTFNSIEVRGVPECIKYITSLSESLDKEAQSK” here?
Answer: The value was “soluble”.

Question: With “MEGNGSVDMFSEVLENQFLQAAKLVENHLDSEIQKLDQIGEDELELLKEKRLAALRKAQQQKQEWLSKGHGEYREIGSERDFFQEVKESEKVVCHFYRDTTFRCKILDRHLAILAKKHLETKFLKLNVEKAPFLCERLRIKVIPTLALLRDGKTQDYVVGFTDLGNTDDFTTETLEWRLGCSDVINYSGNLMEPPFQSQKKFGTNFTKLEKKTIRGKKYDSDSDDD” as the sequence, how does the “soluble on expression in E. coli” value read?
Answer: The value was “soluble”.

Question: With “MGSDKIHHHHHHMDPAPSLGCSLKDVKWSSVAVPLDLLVSTYRLPQIARLDNGECVEGLRENDYLLIHSCRQWTTITAHSLEEGHYVIGPKIEIPVHYAGQFKLLEQDRDIKEPVQYFNSVEEVAKAFPERVYVMEDITFNVKVASGECNEDTEVYNITLCTGDELTLMGQAEILYAKTFKEKSRLNTIFKKIGKLNSISKLGKGKMPCLICMNHRTNESISLPFQCKGRFSTRSPLELQMQEGEHTIRNIVEKTRLPVNVTVPSPPPRNPYDLHFIREGHRYKFVNIQTKTVVVCCVLRNNKILPMHFPLHLTVPKFSLPEHLVKGESWPETLVHHWLGICQEQFDIDEYSRAVRDVKTDWNEECK” as the sequence, how does the “soluble on expression in E. coli” value read?
Answer: Its value is “not soluble”.

Question: With “MSLAPLAPLRAHAGRRLTAGLDDATIERLATDHPTLRQAIEAAGSEYALVQAEVADLLDLDEDAQISAVQDGFINFYADDAVTPYVALAARGPWVITLKGAVLYDAGGYGMLGFGHTPEAVLDAMARPQVMANVMTPSLAQRKLDRALRAEIGHTRGGCPFARFMCLNSGSEAVGLAARIVDTNAKLHTDPGARHAGATIKRLVVKGSFHGRTDRPGLYSDSSRKTYSKYLASYRDEDSVIAIAPYDIAALQRAFDEAARNHWFIEAVFLEPVMGEGDPGRALPAEFYAAARTLTRNHGSLLLVDSIQAGLRAHGVLSVVDYPGFEQLDPPDLETYSKALNAAQYPLSVLAVTEQAAQVYRKGTYGNTMTTNPRALDVACATLALFTPQIRDNIRLRGAQALRKLEALQAELGGLITKVQGTGLLFSCELAPQYKCYGAGSTEEWLRHHGVNVIHGGENSLRFTPHFGMDEAELDLLVGLIAKALKEGPRQAQAEAEGHHHHHH” as the sequence, how does the “soluble on expression in E. coli” value read?
Answer: Its value is “soluble”.

Question: With “MGSDKIHHHHHHMKIKVALLDKDKEYLDRLTGVFNTKYADKLEVYSFTDEKNAIESVKEYRIDVLIAEEDFNIDKSEFKRNCGLAYFTGTPGIELIKDEIAICKYQRVDVIFKQILGVYSDMAANVATISGENDKSSVVIFTSPCGGVGTSTVAAACAIAHANMGKKVFYLNIEQCGTTDVFFQAEGNATMSDVIYSLKSRKANLLLKLESCIKQSQEGVSYFSSTKVALDILEISYADIDTLIGNIQGMDNYDEIIVDLPFSLEIEKLKLLSKAWRIIVVNDGSQLSNYKFMRAYESVVLLEQNDDINIIRNMNMIYNKFSNKNSEMLSNISIKTIGGAPRYEHATVRQIIEALTKMEFFEEILQ” as the sequence, how does the “soluble on expression in E. coli” value read?
Answer: The value was “not soluble”.

Question: For “MGSDKIHHHHHHMEEFVFFIEGNVNHPLTIDPTVWIFDERKVDLTTYFQELATKEDEMTAYKKAISKQWDKEITKGSEPPRPDTNGNVIKYEKQKLIHGSFGMPFMPFLKNSEPDSDAKTVTVVCADGNEHSFPIDEAAQFILGFAKNGSPLREDGPVHVYFGDGSNESTPIINVIRFSVS”, which “soluble on expression in E. coli” value is on record?
Answer: The value was “not soluble”.

Question: With “MNNGKLFLVGTPIGNLKDITLRALETLQNCDVIAAEDTRQSLKLLNHFDIKKPLISYHKFNENNRSSELMDMVREGKKVALVTDAGMPGISDPGSVIVEKFIENNLEFEVIPG” as the sequence, how does the “soluble on expression in E. coli” value read?
Answer: The value was “not soluble”.

Question: With “MGHHHHHHSHMVTQFKEKNESLQYETSSPTVQLKIPQLRVSSVSKSQPDGSGLLDVMYQVSKTSSVLEGSALQKLKNILPKQNKIECSGPVTHSSVDSYFLHGDLSPLCLNSKNGTVDGTSENTEDGLDRKDSKQPRKKRGRYRQYDHEIMEEAIAMVMSGKMSVSKAQGIYGVPHSTLEYKVKERSGTLKTPPKKKLRLPDTGLYNMTDSGTGSCKNSSKPV” as the sequence, how does the “soluble on expression in E. coli” value read?
Answer: The value was “soluble”.

Question: Which “soluble on expression in E. coli” value does the source give for “MSCRFYQHKFPEVEDVVMVNVRSIQEMGAYVSLLEYNNIEGMIHLSELSRRRIRSINKLIRIGRNECVKVIRVDKEKGYIDLSKRRVSPEEAIKCEDKFTKSKTVYSILRHVAEVLEYTKDEQLESLFQRTAWVFDDKYKRPGYGAYDAFKHAVSDPSILDSLDLNEDEREVLINNINRRLTPQAVKIRADIEVACYGYEGIDAVKEALRAGLNCSTENMPIKINLIAPPRYVMTTTTLERTEGLSVLSQAMAVIKEKIEEKRGVFNVQMEPKVVTDTDETELARQMERLERENAEVDGDLEHHHHHH” here?
Answer: Its value is “soluble”.

Question: Which “soluble on expression in E. coli” value does the source give for “MGSDKIHHHHHHMVNFSYRVFAAVVEKKTFFHAAESLNVTPSAVSHSISQLENELGFPLFLRNHSGVELTNDGKTVLPVIQAILNTEEELYQVSASIKGLNSGRIRIGAFSSVCINWLPTIIRRFKNQYPQVEVTVFQGNFNQIADGVSNGSIDIGFSSLPVDDKLLVEPLIKDRIYCVAPSDFVPKDKMNVTNQDIGRRRFILQQIDYDRDTKKALDQYNVTPNSLTYSIDDQSILSMVESGLGLGILPELALKKLSGNVHIYPFDKNFARTICLVTNKNLAQAPSTKRMLKEINSFLRSNYKNQFLG” here?
Answer: Its value is “not soluble”.

Question: With “MSLASVIADVPGMKTIVQVLTFRDYQYDDGWHQANIEVPAISGLEESGLGQALNQKYLEENKKLYEDFMADVEEMKALGDGHMGVDSGYEIKTDNERLLAIGRYVVNTVGSSSTVFKYDTIDKVDQVLITLPSLFKDDSYVQVISDYIVNEMKAKMKADSNLIYWVVTDENKDEVNYFEPFTQIKPEQSFYINSDYKLVISFDKYEVGPGVMGMQEFVIPTEVIADRLVSDEYVREGHHHHHH” as the sequence, how does the “soluble on expression in E. coli” value read?
Answer: The value was “soluble”.

Question: For “MRGPVKIVATVGPSSSSASILAQMLSLGVDVARINASHGGVEQWNSMLESLRRAEEAVGKRVGVAVDLEGPRVRTGNSEPVKLEKGDLVTLGFMEGDVPVDARQFFETIDEGDIVLLDDGKIILQVESVEGFRVKARVLEGGVLGPRKGVVVRGKEPDLPPLSAKDRRALEFFADKGVSHVYVSFARSAEHVEKVRTVVRRLGLRQARIFAKIEGPSGVSRIGEIAEASDGVIIARGDLGMHYSLEELPEIQELIVWEARKRYKTVVLATEFLSSMIEKPVPTRSEVVDIYQAVLQTADALMLTGETAIGKYPVKSVQWMAKISSRAYKKLATSPPERPRPTSTPYKLALGLVELAESLDSPLVVYSKTGRFAERLASFKPLKTFYVGVPSREVERVVRHLWGAEPIVVGDYPYEAGLAKTYEKLRRENIIHGDETVVEAAWSSERGIYIIRVRNLEF”, which “soluble on expression in E. coli” value is on record?
Answer: The value was “soluble”.

Question: Which “soluble on expression in E. coli” value does the source give for “IKNFSYGVKFVLSDAQQKILKYNNPDKSLSNPYYEGQKLGEIWGYKTIGIAQSDEEMNQHLANAKQPMGQKWAAGDIMYADLDNSGSVDQGNYKVGDSGDWQIIGNNTPRFNYGITIDAAWKGLDFRAFVQGIGKRDYWLNGPYFWGFSGGGEWASAGFKEHWDFWRPEGDPLGANTNSYFARVIRGTSKNQQRQTRYLQDASYWRLKNIQIGYTLPKVWTKKAGMESVRVYVSGDNLLTVSDITGVFDPENLGTQWTDPGKVYPLQKVIAIGLTVNF” here?
Answer: The value was “not soluble”.

Question: With “MIKLSEKGVFLASNNEIIAEEHFTGEIKKEEAKKGTIAWSILSSHNTSGNMDKLKIKFDSLASHDITFVGIVQTAKASGMERFPLPYVLTNCHNSLCAVGGTINGDDHVFGLSAAQRYGGIFVPPHIAVIHQYMREMMAGGGKMILGSDSHTRYGALGTMAVGEGGGELVKQLLNDTWDIDYPGVVAVHLTGKPAPYVGPQDVALAIIGAVFKNGYVKNKVMEFVGPGVSALSTDFRNSVDVMTTETTCLSSVWQTDEEVHNWLALHGRGQDYCQLNPQPMAYYDGCISVDLSAIKPMIALPFHPSNVYEIDTLNQNLTDILREIEIESERVAHGKAKLSLLDKVENGRLKVQQGIIAGCSGGNYENVIAAANALRGQSCGNDTFSLAVYPSSQPVFMDLAKKGVVADLIGAGAIIRTAFCGPCFGAGDTPINNGLSIRHTTRNFPNREGSKPANGQMSAVALMDARSIAATAANGGYLTSASELDCWDNVPEYAFDVTPYKNRVYQGFVKGATQQPLIYGPNIKDWPELGALTDNIVLKVCSKILDEVTTTDELIPSGETSSYRSNPIGLAEFTLSRRDPGYVSRSKATAELENQRLAGNVSELTEVFARIKQIAGQEHIDPLQTEIGSMVYAVKPGDGSAREQAASCQRVIGGLANIAEEYATKRYRSNVINWGMLPLQMAEVPTFEVGDYIYIPGIKAALDNPGTTFKGYVIHEDAPVTEITLYMESLTAEEREIIKAGSLINFNKNRQM” as the sequence, how does the “soluble on expression in E. coli” value read?
Answer: Its value is “soluble”.
